{"source": "paper PMC2808226", "about": "(Molecular Biology of the Cell, 2010)", "molecules": {"B1": {"name": "caveolin-3-c-myc (natural protein)", "chain": "MMTEEHTDLEARIIKDIHCKEIDLVNRDPKNINEDIVKVDFEDVIAEPEGTYSFDGVWKVSFTTFTVSKYWCYRLLSTLLGVPLALLWGFLFACISFCHIWAVVPCIKSYLIEIQCISHIYSLCIRTFCNPLFAALGQVCSNIKVVLRREG"}}, "key": {"[1]": {"target": "nicotinic acetylcholine receptor (mouse (endogenous in gastrocnemius muscle and in myotubes)) (UniProt P04756)", "sequence (P04756 whole entry, looked up)": "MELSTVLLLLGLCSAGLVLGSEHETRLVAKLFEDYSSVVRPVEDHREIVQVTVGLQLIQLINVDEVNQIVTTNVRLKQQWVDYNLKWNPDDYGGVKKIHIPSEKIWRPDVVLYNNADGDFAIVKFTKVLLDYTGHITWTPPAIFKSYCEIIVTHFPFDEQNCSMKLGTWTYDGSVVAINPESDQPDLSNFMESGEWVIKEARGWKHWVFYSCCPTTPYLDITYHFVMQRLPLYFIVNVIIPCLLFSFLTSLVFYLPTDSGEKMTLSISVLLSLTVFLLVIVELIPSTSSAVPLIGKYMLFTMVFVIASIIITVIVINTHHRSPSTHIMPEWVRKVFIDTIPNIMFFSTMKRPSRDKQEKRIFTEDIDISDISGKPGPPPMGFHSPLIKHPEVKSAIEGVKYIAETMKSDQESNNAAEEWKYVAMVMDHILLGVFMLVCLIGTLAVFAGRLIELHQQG", "experiment": "pull-down"}, "nAChR-α-c-myc": {"target": "nAChR-α-c-myc (UniProt P04756 21-457)", "sequence (P04756 21-457)": "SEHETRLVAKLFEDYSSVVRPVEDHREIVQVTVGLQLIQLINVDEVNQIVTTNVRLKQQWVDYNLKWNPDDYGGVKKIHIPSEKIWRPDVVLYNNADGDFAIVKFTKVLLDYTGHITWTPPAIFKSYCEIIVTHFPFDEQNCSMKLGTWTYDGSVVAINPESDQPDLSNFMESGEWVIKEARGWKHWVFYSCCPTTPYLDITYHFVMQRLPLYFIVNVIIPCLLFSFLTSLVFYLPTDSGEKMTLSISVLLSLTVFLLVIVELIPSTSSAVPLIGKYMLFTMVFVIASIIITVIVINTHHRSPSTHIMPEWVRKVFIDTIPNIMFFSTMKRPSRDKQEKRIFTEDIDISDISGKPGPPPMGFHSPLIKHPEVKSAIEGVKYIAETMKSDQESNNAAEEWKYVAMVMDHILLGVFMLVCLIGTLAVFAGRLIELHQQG", "experiment": "co-IP"}}}
{"molecule": "caveolin-3 (from UniProt P51637 1-151) (natural protein)", "values": [{"measurement": "percent of caveolin-3 that interacts with the nAChR, after agrin treatment", "setting": "[1]", "value": 5, "unit": "%"}]}
{"molecule": "B1", "values": [{"measurement": "percent of caveolin-3 that interacts with the nAChR, resting conditions", "setting": "[1]", "value": 0.25, "unit": "%"}, {"measurement": "stoichiometry N", "setting": "nAChR-α-c-myc", "value": "~14", "unit": "caveolin-3 per nAChR"}]}
